B1: NP_015628.1 (parent)
chain: EQRNSRWNTVLRAVKAKTHHLEP
B2: APBB1IP (parent)
chain: FNYSVGFKDLNESLNALEDQDLDA

Variants of: B1
Assay: protein stability index of a GFP-peptide fusion (GPS, HEK-293T) (PSI 1-6); higher = more stable
Conditions: c terminus: native

Protein stability index of substitutions, site by site:
E22: D 3.21 | M 2.84 | R 2.26 | F 3.55 | H 3.45 | C 2.63 | G 3.09 | Y 3.91 | Q 3.28 | V 3.49 | N 4.48 | P 4.21 | K 4.85 | S 3.09 | W 3.6 | I 2.45 | T 3.23 | A 2.87 | L 3.02
A16: Y 2.78
T18: E 3.26 | K 2.97 | W 3.57 | Y 2.84 | A 2.91 | H 2.76 | D 3.14 | S 2.29 | I 3.12 | L 3.13 | N 2.82 | M 2.83 | F 3.33 | Q 3.34 | C 2.5 | V 3.12 | P 2.93 | G 3.12 | R 3.11
L21: V 4.29 | Y 3.81 | I 3.59 | R 2.08 | N 4.59 | M 3.01 | G 3.67 | F 3.82 | E 4.79 | K 4.92 | W 4.04 | D 4.04 | H 4.16 | T 4.26 | A 4.09 | Q 4.55 | P 4.27
H19: Q 3.73 | P 2.65 | V 3.31 | D 3.81 | N 3.56 | F 3.66 | L 3.43 | E 3.75 | W 3.54 | Y 3.07 | A 3.34 | R 2.96 | M 3.37 | I 3.44 | G 3.86 | T 3.74 | K 3.57
H20: F 3.22 | E 3.19 | A 2.81 | N 3.47 | S 2.66 | L 3.6 | G 1.9 | Y 3.25 | V 3.46 | K 4.01 | T 3.27 | D 3.09 | W 3.46 | I 3.15 | Q 2.89 | C 2.23 | P 3.89
K17: W 2.62 | T 2.84 | E 2.77 | Y 2.82 | I 2.61 | D 3.1 | H 2.52 | M 2.91 | C 2.61 | A 2.77 | N 2.69 | L 2.62 | F 2.75 | R 3.33 | P 2.96 | V 2.79 | S 2.85 | Q 2.67
P23: M 4.09 | E 3.95 | A 4.32 | K 5.17 | F 4.51 | R 3.9 | H 4.88 | N 4.98 | D 4.92 | G 4.74 | L 4.39 | I 4.19 | Q 5.08 | V 4.13 | Y 4.4 | T 4.13

Variants of: B2
Assay: as above
Conditions: c terminus: a fixed tail appended

Protein stability index, by site and new letter:
V5: Y 4.09 | D 4.65 | G 4.19 | I 4.38 | C 4.08 | A 4.95 | S 4.86 | F 4.34 | E 4.47 | M 4.51 | K 4.65 | N 4.36 | H 4.76 | W 3.68 | P 4.99 | Q 4.65 | R 4.82 | L 4.55 | T 4.96
F1: P 5.21 | E 5.53 | K 4.39 | G 4.72 | V 4.66 | N 5.51 | C 4.79 | S 4.44 | A 5 | I 4.43 | M 5.31 | W 4.53 | D 5.74 | R 5.42 | Y 4.91 | H 5.05 | T 5.35 | Q 5.38 | L 4.7
K8: I 2.51 | T 3.54 | G 4.65 | E 5.1 | F 2.99 | R 4.33 | P 4.79 | C 3.36 | S 4.56 | D 5.05 | N 4.74 | L 3.17 | Y 3.58 | A 4.16 | Q 4.72 | W 2.27 | H 3.81 | M 3.73 | V 3.52
G6: R 3.9 | P 4.73 | Y 1.71 | M 3.12 | V 2.55 | C 3 | A 3.34 | L 2.3 | E 4.2 | F 2.58 | I 3.03 | S 3.89 | Q 4.17 | K 4.05 | N 4.04 | W 2.32 | T 3.57 | D 4.85 | H 3.71
N11: G 4.29 | T 4.58 | S 4.21 | W 2.58 | R 4.18 | Q 4.38 | F 3.62 | I 3.31 | C 4.06 | M 3.68 | Y 3.25 | V 3.45 | P 4.23 | A 4.45 | E 4.88 | L 3.78 | H 4.21 | D 4.75 | K 4.17
D9: V 2.67 | C 3.13 | F 3.52 | P 4.15 | S 3.45 | M 3.86 | T 4.2 | R 4.05 | Q 4.22 | G 4.39 | N 4.31 | E 4.25 | K 4.19 | W 2.7 | A 3.99 | L 3.09 | Y 3.44 | H 4.08 | I 2.49
N2: Y 2.72 | Q 2.88 | F 3.07 | K 4.11 | G 4.39 | M 1.99 | E 4.45 | I 4.43 | H 1.98 | L 2.01 | P 2.44 | D 5.38 | A 2.07 | C 2.18 | T 2.23 | S 2.64 | V 2.96 | W 2.4 | R 3.26
E12: A 3.74
F7: R 5.71 | W 3.9 | E 5.24 | G 5.22 | I 4.21 | N 5.13 | L 4.53 | P 4.49 | K 5.18 | S 5.41 | V 4.92 | Q 5.15 | Y 4.55 | M 4.48 | D 5.21 | A 5.3 | T 5.27 | C 5.09 | H 4.57
S4: P 3.29 | I 3.76 | H 4.79 | F 3.24 | V 3.72 | W 2.56 | A 4.53 | T 4.62 | E 5.53 | M 4.23 | N 4.61 | G 4.88 | R 4.82 | K 4.02 | Y 3.42 | C 4.31 | D 5.11 | Q 5.1 | L 3.71
Y3: A 5.06 | C 4.74 | T 5.54 | E 5.43 | D 4.89 | S 4.76 | V 3.54 | N 5.12 | Q 5.36 | P 5.15 | L 4.52 | H 4.07 | I 4.21 | F 3.71 | W 3.87 | K 5.17 | M 4.4 | R 5.36 | G 4.82
L10: S 5.06 | G 4.95 | M 4.81 | H 4.58 | Q 4.93 | R 4.54 | D 5.16 | K 4.88 | A 4.71 | T 4.55 | P 4.62 | W 3.95 | I 4.26 | N 4.75 | C 3.5 | Y 4.52 | F 3.95 | E 5.09 | V 4.86
